Source: the RNAGym collection of RNA variant scans (doi:10.7554/elife.80360)

B1: HDV Ribozyme (parent)
chain: GGCCGGCAUGGUCCCAGCCUCCUCGCUGGCGCCGGCUGGGCAACAUUCCGAGGGGACCGUCCCCUCGGUAAUGGCGAAUGGGACCCA

Variants of: B1
Experiment: self-cleavage, relative activity (ratio to wild type); higher = more cleavage; co-transcriptional

| Variant | self-cleavage |
| --- | --- |
| C4U U72A | 0.415 |
| C4U U72C | 0.554 |
| C4U A87C | 0.708 |
| C4G C30A | 0.0601 |
| C4U A43U | 0.332 |
| C4U A43G | 0 |
| C4A G28A | 0.0489 |
| C4A G28U | 0.0692 |
| C4G G34C | 0.782 |
| C4U A77G | 0.578 |
| C4G C26G | 0.306 |
| C4G C26A | 0.569 |
| C4A U20C | 0.214 |
| G5A A8U | 0.151 |
| G5A A8G | 0.0692 |
| G5A A8C | 0.0519 |
| C4A G68A | 0.196 |
| C4A G68C | 0.115 |
| C4G C58U | 0.404 |
| C4G C58G | 0.289 |
| G5A A77G | 0 |
| C4U A8C | 0.443 |
| C4G C85U | 0.306 |
| C4G C85A | 0.435 |

| Variant | self-cleavage |
| --- | --- |
| C4U U69A | 0.623 |
| C4G G10A | 0.105 |
| C4U G5A | 0.185 |
| C4U G5U | 0.237 |
| C4U G55C | 0.656 |
| C4U G55U | 0.639 |
| C4U G55A | 0.772 |
| C4G G11A | 0.104 |
| C4G G11C | 0 |
| C4U G50A | 0.686 |
| C4U G50C | 0.917 |
| C4U G76A | 0.443 |
| C4U C57G | 0.629 |
| C4U C57U | 0.656 |
| C4U C75G | 0.122 |
| C4G C13U | 0.369 |
| C4G C13G | 0 |
| C4G C13A | 0.0277 |
| C4U C18A | 0 |
| C4U C18G | 0.095 |
| C4G G29C | 0 |
| C4G C48U | 0.306 |
| C4G C48A | 0.59 |
| C4G C48G | 0.485 |

| Variant | self-cleavage |
| --- | --- |
| C4G G40U | 0.381 |
| C4G G40C | 0.128 |
| C4U C58G | 0.615 |
| C4A U60G | 0.0449 |
| C4A U60A | 0.284 |
| C4A U60C | 0.344 |
| C4U G29U | 0.0302 |
| C4U C32G | 0 |
| C4U G35U | 0.162 |
| C4G A87C | 0.373 |
| C4G A87G | 0.0715 |
| C4G U27G | 0.268 |
| C4G U27A | 0.222 |
| C4G U27C | 0.0437 |
| C4G C22A | 0.142 |
| C4G C22U | 0.0449 |
| C4A G82C | 0.0396 |
| C4U G34C | 0.151 |
| C4U G34U | 0.424 |
| C4U G28A | 0.0845 |
| C4U G28U | 0.0277 |
| C4G C41U | 0.289 |
| C4G C41A | 0.162 |
| C4U G31C | 0.0339 |

| Variant | self-cleavage |
| --- | --- |
| C4U G31U | 0.0346 |
| C4U G31A | 0.163 |
| G5A A70G | 0.0504 |
| G5A A70C | 0.166 |
| C4G U69A | 0.192 |
| G5A A78U | 0.101 |
| C4U C62G | 0.151 |
| C4U C62U | 0.656 |
| C4G C36A | 0.0241 |
| C4G U9C | 0.19 |
| C4G U9G | 0.293 |
| G5A A16C | 0.166 |
| G5A A16U | 0.356 |
| C4G A51C | 0.458 |
| C4G A51U | 0.284 |
| C4G C24G | 0.0426 |
| C4G C24A | 0.102 |
| C4A G34C | 0.261 |
| C4A G34A | 0.284 |
| C4U U12G | 0.465 |
| C4G C49G | 0.504 |
| C4G C49U | 0.612 |
| C4U C7G | 0 |
| C4U C22G | 0.111 |

| Variant | self-cleavage |
| --- | --- |
| C4U G68U | 0.657 |
| C4A U79A | 0.0739 |
| C4U C30U | 0.332 |
| C4U C33U | 0.612 |
| C4U C33G | 0 |
| C4G C33A | 0 |
| C4G C33G | 0.0583 |
| C4G C21A | 0.0292 |
| C4G C21U | 0 |
| C4U U65G | 0.656 |
| C4U U65A | 0.727 |
| C4U U65C | 1.06 |
| C4G C66U | 0.445 |
| C4G C66A | 0.369 |
| C4U C36U | 0.272 |
| C4U C36A | 0 |
| C4U C36G | 0.0707 |
| C4G G35C | 0.13 |
| C4G G35A | 0 |
| C4G G80A | 0.0203 |
| C4G G80C | 0.0906 |
| C4G G80U | 0.0953 |
| G5A A45C | 0.0462 |
| G5A A45U | 0 |

| Variant | self-cleavage |
| --- | --- |
| C4A G5A | 0.13 |
| C4G G81C | 0.0767 |
| C4G G81U | 0.0554 |
| C4U G25A | 0.111 |
| C4U G53C | 0.782 |
| C4U G53A | 0.665 |
| G5A A87U | 0.218 |
| C4U U79A | 0.755 |
| C4G U23A | 0.47 |
| C4A U9C | 0.268 |
| C4U U20A | 0.0554 |
| C4U U20C | 0.0437 |
| C4U U20G | 0 |
| C4G A83U | 0.136 |
| C4G A83G | 0.192 |
| C4A G10U | 0.0733 |
| C4G C14G | 0 |
| C4G C14A | 0.0852 |
| C4G C14U | 0.462 |
| C4G G76C | 0.494 |
| C4G G76A | 0.343 |
| C4U G40A | 0.604 |
| C4U G40C | 0.128 |
| C4A G38A | 0.133 |

| Variant | self-cleavage |
| --- | --- |
| C4U A51C | 0.723 |
| G5A A83G | 0.297 |
| C4U G67U | 0.855 |
| C4U G67A | 0.554 |
| C4U G67C | 0.739 |
| C4G C63A | 0.177 |
| C4G C63G | 0.0396 |
| C4G C63U | 0.249 |
| C4A G25C | 0.181 |
| C4U U37G | 0 |
| C4A U65C | 0.567 |
| C4A U65G | 0.26 |
| C4G U20A | 0.0536 |
| C4G U20G | 0 |
| C4G C61U | 0.475 |
| C4U C48A | 0.706 |
| C4U C48G | 0.554 |
| C4G C19G | 0.086 |
| C4U U46C | 0.403 |
| C4U C26U | 0.764 |
| G5A A43C | 0.0594 |
| G5A A43G | 0.131 |
| G5A A43U | 0.089 |
